Measurements reported in patent US20240400708A1.

Tests used:
[1] = target: feline FcRn complex (FcRn-α subunit and β-microglobulin), biotin labeled (feline); experiment: SPR, pH 6
[2] = target: feline FcRn complex (FcRn-α subunit and β-microglobulin), biotin labeled (feline); experiment: SPR, pH 7.4

Binder	Kd [1]	Kd [2]
feline IgG1a S252H/S434L (antibody, part only; not given: Variable domains, not shown: another chain or arm of the molecule) constant: ASTTAPSVFPLAPSCGTTSGATVALACLVLGYFPEPVTVSWNSGALTSGVHTFPAVLQASGLYSLSSMVTVPSSRWLSDTFTCNVAHPPSNTKVDKTVRKTDHPPGPKPCDCPKCPPPEMLGGPSIFIFPPKPKDTLHISRTPEVTCLVVDLGPDDSDVQITWFVDNTQVYTAKTSPREEQFNSTYRVVSVLPILHQDWLKGKEFKCKVNSKSLPSPIERTISKAKGQPHEPQVYVLPPAQEELSRNKVSVTCLIKSFHPPDIAVEWEITGQPEPENNYRTTPPQLDSDGTYFVYSKLSVDRSHWQRGNTYTCSVSHEALHLHHTQKSLTQSPGK	6.08 nM	3.79 nM
feline IgG1a S252M/S428M/S434N/H436Y (antibody, part only; not given: Variable domains, not shown: another chain or arm of the molecule) constant: ASTTAPSVFPLAPSCGTTSGATVALACLVLGYFPEPVTVSWNSGALTSGVHTFPAVLQASGLYSLSSMVTVPSSRWLSDTFTCNVAHPPSNTKVDKTVRKTDHPPGPKPCDCPKCPPPEMLGGPSIFIFPPKPKDTLMISRTPEVTCLVVDLGPDDSDVQITWFVDNTQVYTAKTSPREEQFNSTYRVVSVLPILHQDWLKGKEFKCKVNSKSLPSPIERTISKAKGQPHEPQVYVLPPAQEELSRNKVSVTCLIKSFHPPDIAVEWEITGQPEPENNYRTTPPQLDSDGTYFVYSKLSVDRSHWQRGNTYTCSVMHEALHNHYTQKSLTQSPGK	20.5 nM	28.7 nM
feline IgG1a S252H/S434W (antibody, part only; not given: Variable domains, not shown: another chain or arm of the molecule) constant: ASTTAPSVFPLAPSCGTTSGATVALACLVLGYFPEPVTVSWNSGALTSGVHTFPAVLQASGLYSLSSMVTVPSSRWLSDTFTCNVAHPPSNTKVDKTVRKTDHPPGPKPCDCPKCPPPEMLGGPSIFIFPPKPKDTLHISRTPEVTCLVVDLGPDDSDVQITWFVDNTQVYTAKTSPREEQFNSTYRVVSVLPILHQDWLKGKEFKCKVNSKSLPSPIERTISKAKGQPHEPQVYVLPPAQEELSRNKVSVTCLIKSFHPPDIAVEWEITGQPEPENNYRTTPPQLDSDGTYFVYSKLSVDRSHWQRGNTYTCSVSHEALHWHHTQKSLTQSPGK	0.469 nM	31.1 nM
feline IgG1a D312R (antibody, part only; not given: Variable domains, not shown: another chain or arm of the molecule) constant: ASTTAPSVFPLAPSCGTTSGATVALACLVLGYFPEPVTVSWNSGALTSGVHTFPAVLQASGLYSLSSMVTVPSSRWLSDTFTCNVAHPPSNTKVDKTVRKTDHPPGPKPCDCPKCPPPEMLGGPSIFIFPPKPKDTLSISRTPEVTCLVVDLGPDDSDVQITWFVDNTQVYTAKTSPREEQFNSTYRVVSVLPILHQRWLKGKEFKCKVNSKSLPSPIERTISKAKGQPHEPQVYVLPPAQEELSRNKVSVTCLIKSFHPPDIAVEWEITGQPEPENNYRTTPPQLDSDGTYFVYSKLSVDRSHWQRGNTYTCSVSHEALHSHHTQKSLTQSPGK	6.91 nM	25 nM
feline IgG1a S252H/S434P (antibody, part only; not given: Variable domains, not shown: another chain or arm of the molecule) constant: ASTTAPSVFPLAPSCGTTSGATVALACLVLGYFPEPVTVSWNSGALTSGVHTFPAVLQASGLYSLSSMVTVPSSRWLSDTFTCNVAHPPSNTKVDKTVRKTDHPPGPKPCDCPKCPPPEMLGGPSIFIFPPKPKDTLHISRTPEVTCLVVDLGPDDSDVQITWFVDNTQVYTAKTSPREEQFNSTYRVVSVLPILHQDWLKGKEFKCKVNSKSLPSPIERTISKAKGQPHEPQVYVLPPAQEELSRNKVSVTCLIKSFHPPDIAVEWEITGQPEPENNYRTTPPQLDSDGTYFVYSKLSVDRSHWQRGNTYTCSVSHEALHPHHTQKSLTQSPGK	9.32 nM	12.8 nM
feline IgG1a S252M/S428M (antibody, part only; not given: Variable domains, not shown: another chain or arm of the molecule) constant: ASTTAPSVFPLAPSCGTTSGATVALACLVLGYFPEPVTVSWNSGALTSGVHTFPAVLQASGLYSLSSMVTVPSSRWLSDTFTCNVAHPPSNTKVDKTVRKTDHPPGPKPCDCPKCPPPEMLGGPSIFIFPPKPKDTLMISRTPEVTCLVVDLGPDDSDVQITWFVDNTQVYTAKTSPREEQFNSTYRVVSVLPILHQDWLKGKEFKCKVNSKSLPSPIERTISKAKGQPHEPQVYVLPPAQEELSRNKVSVTCLIKSFHPPDIAVEWEITGQPEPENNYRTTPPQLDSDGTYFVYSKLSVDRSHWQRGNTYTCSVMHEALHSHHTQKSLTQSPGK	7.27 nM	19.5 nM
feline IgG1a S252M/S428M/S434N (antibody, part only; not given: Variable domains, not shown: another chain or arm of the molecule) constant: ASTTAPSVFPLAPSCGTTSGATVALACLVLGYFPEPVTVSWNSGALTSGVHTFPAVLQASGLYSLSSMVTVPSSRWLSDTFTCNVAHPPSNTKVDKTVRKTDHPPGPKPCDCPKCPPPEMLGGPSIFIFPPKPKDTLMISRTPEVTCLVVDLGPDDSDVQITWFVDNTQVYTAKTSPREEQFNSTYRVVSVLPILHQDWLKGKEFKCKVNSKSLPSPIERTISKAKGQPHEPQVYVLPPAQEELSRNKVSVTCLIKSFHPPDIAVEWEITGQPEPENNYRTTPPQLDSDGTYFVYSKLSVDRSHWQRGNTYTCSVMHEALHNHHTQKSLTQSPGK	8.51 nM	15.3 nM
feline IgG1a S252H/S434Y (antibody, part only; not given: Variable domains, not shown: another chain or arm of the molecule) constant: ASTTAPSVFPLAPSCGTTSGATVALACLVLGYFPEPVTVSWNSGALTSGVHTFPAVLQASGLYSLSSMVTVPSSRWLSDTFTCNVAHPPSNTKVDKTVRKTDHPPGPKPCDCPKCPPPEMLGGPSIFIFPPKPKDTLHISRTPEVTCLVVDLGPDDSDVQITWFVDNTQVYTAKTSPREEQFNSTYRVVSVLPILHQDWLKGKEFKCKVNSKSLPSPIERTISKAKGQPHEPQVYVLPPAQEELSRNKVSVTCLIKSFHPPDIAVEWEITGQPEPENNYRTTPPQLDSDGTYFVYSKLSVDRSHWQRGNTYTCSVSHEALHYHHTQKSLTQSPGK	0.14 nM	12.5 nM

Other lines, results leading:

Kd [1]	Kd [2]	Binder
14.8 nM	33.8 nM	feline IgG1a S252M/S434N (antibody, part only; not given: Variable domains, not shown: another chain or arm of the molecule) constant: ASTTAPSVFPLAPSCGTTSGATVALACLVLGYFPEPVTVSWNSGALTSGVHTFPAVLQASGLYSLSSMVTVPSSRWLSDTFTCNVAHPPSNTKVDKTVRKTDHPPGPKPCDCPKCPPPEMLGGPSIFIFPPKPKDTLMISRTPEVTCLVVDLGPDDSDVQITWFVDNTQVYTAKTSPREEQFNSTYRVVSVLPILHQDWLKGKEFKCKVNSKSLPSPIERTISKAKGQPHEPQVYVLPPAQEELSRNKVSVTCLIKSFHPPDIAVEWEITGQPEPENNYRTTPPQLDSDGTYFVYSKLSVDRSHWQRGNTYTCSVSHEALHNHHTQKSLTQSPGK
0.796 nM	25.3 nM	feline IgG1a S252Y/S428M/D312P (antibody, part only; not given: Variable domains, not shown: another chain or arm of the molecule) constant: ASTTAPSVFPLAPSCGTTSGATVALACLVLGYFPEPVTVSWNSGALTSGVHTFPAVLQASGLYSLSSMVTVPSSRWLSDTFTCNVAHPPSNTKVDKTVRKTDHPPGPKPCDCPKCPPPEMLGGPSIFIFPPKPKDTLYISRTPEVTCLVVDLGPDDSDVQITWFVDNTQVYTAKTSPREEQFNSTYRVVSVLPILHQPWLKGKEFKCKVNSKSLPSPIERTISKAKGQPHEPQVYVLPPAQEELSRNKVSVTCLIKSFHPPDIAVEWEITGQPEPENNYRTTPPQLDSDGTYFVYSKLSVDRSHWQRGNTYTCSVMHEALHSHHTQKSLTQSPGK
2.4 nM	39.9 nM	feline IgG1a S252Y/S428M/Q311Y (antibody, part only; not given: Variable domains, not shown: another chain or arm of the molecule) constant: ASTTAPSVFPLAPSCGTTSGATVALACLVLGYFPEPVTVSWNSGALTSGVHTFPAVLQASGLYSLSSMVTVPSSRWLSDTFTCNVAHPPSNTKVDKTVRKTDHPPGPKPCDCPKCPPPEMLGGPSIFIFPPKPKDTLYISRTPEVTCLVVDLGPDDSDVQITWFVDNTQVYTAKTSPREEQFNSTYRVVSVLPILHYDWLKGKEFKCKVNSKSLPSPIERTISKAKGQPHEPQVYVLPPAQEELSRNKVSVTCLIKSFHPPDIAVEWEITGQPEPENNYRTTPPQLDSDGTYFVYSKLSVDRSHWQRGNTYTCSVMHEALHSHHTQKSLTQSPGK
2.58 nM	39.2 nM	feline IgG1a S252Y/S428M (antibody, part only; not given: Variable domains, not shown: another chain or arm of the molecule) constant: ASTTAPSVFPLAPSCGTTSGATVALACLVLGYFPEPVTVSWNSGALTSGVHTFPAVLQASGLYSLSSMVTVPSSRWLSDTFTCNVAHPPSNTKVDKTVRKTDHPPGPKPCDCPKCPPPEMLGGPSIFIFPPKPKDTLYISRTPEVTCLVVDLGPDDSDVQITWFVDNTQVYTAKTSPREEQFNSTYRVVSVLPILHQDWLKGKEFKCKVNSKSLPSPIERTISKAKGQPHEPQVYVLPPAQEELSRNKVSVTCLIKSFHPPDIAVEWEITGQPEPENNYRTTPPQLDSDGTYFVYSKLSVDRSHWQRGNTYTCSVMHEALHSHHTQKSLTQSPGK
2.13 nM	25 nM	feline IgG1a S252Y/S428M/L314K (antibody, part only; not given: Variable domains, not shown: another chain or arm of the molecule) constant: ASTTAPSVFPLAPSCGTTSGATVALACLVLGYFPEPVTVSWNSGALTSGVHTFPAVLQASGLYSLSSMVTVPSSRWLSDTFTCNVAHPPSNTKVDKTVRKTDHPPGPKPCDCPKCPPPEMLGGPSIFIFPPKPKDTLYISRTPEVTCLVVDLGPDDSDVQITWFVDNTQVYTAKTSPREEQFNSTYRVVSVLPILHQDWKKGKEFKCKVNSKSLPSPIERTISKAKGQPHEPQVYVLPPAQEELSRNKVSVTCLIKSFHPPDIAVEWEITGQPEPENNYRTTPPQLDSDGTYFVYSKLSVDRSHWQRGNTYTCSVMHEALHSHHTQKSLTQSPGK
0.506 nM	18.8 nM	feline IgG1a S252Y/S428M/Q311W (antibody, part only; not given: Variable domains, not shown: another chain or arm of the molecule) constant: ASTTAPSVFPLAPSCGTTSGATVALACLVLGYFPEPVTVSWNSGALTSGVHTFPAVLQASGLYSLSSMVTVPSSRWLSDTFTCNVAHPPSNTKVDKTVRKTDHPPGPKPCDCPKCPPPEMLGGPSIFIFPPKPKDTLYISRTPEVTCLVVDLGPDDSDVQITWFVDNTQVYTAKTSPREEQFNSTYRVVSVLPILHWDWLKGKEFKCKVNSKSLPSPIERTISKAKGQPHEPQVYVLPPAQEELSRNKVSVTCLIKSFHPPDIAVEWEITGQPEPENNYRTTPPQLDSDGTYFVYSKLSVDRSHWQRGNTYTCSVMHEALHSHHTQKSLTQSPGK
0.0207 nM	9.13 nM	feline IgG1a S252Y/S428M/S434F (antibody, part only; not given: Variable domains, not shown: another chain or arm of the molecule) constant: ASTTAPSVFPLAPSCGTTSGATVALACLVLGYFPEPVTVSWNSGALTSGVHTFPAVLQASGLYSLSSMVTVPSSRWLSDTFTCNVAHPPSNTKVDKTVRKTDHPPGPKPCDCPKCPPPEMLGGPSIFIFPPKPKDTLYISRTPEVTCLVVDLGPDDSDVQITWFVDNTQVYTAKTSPREEQFNSTYRVVSVLPILHQDWLKGKEFKCKVNSKSLPSPIERTISKAKGQPHEPQVYVLPPAQEELSRNKVSVTCLIKSFHPPDIAVEWEITGQPEPENNYRTTPPQLDSDGTYFVYSKLSVDRSHWQRGNTYTCSVMHEALHFHHTQKSLTQSPGK
